In patent US20240132615A1 (ICHNOS SCIENCES, published 2024):

T1: recombinant human BCMA Fc fusion protein (Acrobiosystems BC7-H5254 / BCA-H5254) (human, UniProt Q02223 1-54)
T1 construct: also called recombinant BCMA-Fc protein; not shown: Fc of the bought fusion protein, not described
T1 sequence (looked up): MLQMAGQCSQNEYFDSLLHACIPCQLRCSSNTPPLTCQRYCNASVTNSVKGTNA

T2: human BCMA on cells (NCI-H929, NCI-H929 CD38 KO, MOLP-8) (human, UniProt Q02223 1-184)
T2 construct: whole, on cells; endogenous BCMA of myeloma cell lines
T2 sequence (looked up): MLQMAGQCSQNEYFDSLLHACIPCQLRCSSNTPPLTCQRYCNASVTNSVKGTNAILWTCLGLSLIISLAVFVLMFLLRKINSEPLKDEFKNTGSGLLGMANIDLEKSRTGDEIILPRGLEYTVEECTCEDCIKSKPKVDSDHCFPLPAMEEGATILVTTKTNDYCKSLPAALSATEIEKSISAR


Key:
[1] = molecular target: T3, human CD3 on cells (HPB-ALL cells, primary human T cells) (human, UniProt P07766 23-207); assay: flow cytometry, human CD4+ T cells
T3 construct: whole, on cells; only the epsilon chain is written

[2] = molecular target: T4, recombinant cynomolgus monkey BCMA Fc fusion protein (Acrobiosystems BCA-C5253) (cynomolgus monkey, UniProt A0A2K5UD97 1-53); assay: SPR, Fab as analyte, captured cynomolgus BCMA-Fc
T4 construct: bought protein; not shown: Fc of the bought fusion protein, not described

[3] = molecular target: T1, recombinant human BCMA Fc fusion …; assay: SPR, Fab as analyte, captured human BCMA-Fc
[4] = molecular target: T2, human BCMA on cells (NCI-H929, NCI-H929 …); assay: flow cytometry, NCI-H929 cells, one-site fit
[5] = molecular target: T2, human BCMA on cells (NCI-H929, NCI-H929 …); assay: flow cytometry, NCI-H929 cells

T4 sequence (A0A2K5UD97 entry or part of it): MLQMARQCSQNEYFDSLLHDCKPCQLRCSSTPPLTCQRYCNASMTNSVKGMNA
T3 sequence (P07766 23-207): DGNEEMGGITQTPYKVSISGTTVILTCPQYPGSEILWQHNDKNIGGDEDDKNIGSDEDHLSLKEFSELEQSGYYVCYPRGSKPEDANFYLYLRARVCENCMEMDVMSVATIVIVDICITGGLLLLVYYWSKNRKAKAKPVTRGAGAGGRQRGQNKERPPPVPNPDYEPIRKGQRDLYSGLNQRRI

| Binder | MFI at 800 nM [1] | Kd [2] | Kd [3] | Kd [4] | Maximum binding (RFI) [5] |
| --- | --- | --- | --- | --- | --- |
| Anti-CD3-C1-UCP01-B9 IgG1LALA (antibody, V domains shown, IgG1 LALA) VH: QVQLVQSGAEVKKPGSSVKVSCKASGGKFSRYAISWVRQAPGQGLEWMGGINAPVVRSPEYAQKFQGRVTITADESTSTAYMELSSLRSEDTAVYYCARYGYSLYMDIWGQGTLVTVSS VL: not shown | 108000 MFI |  |  |  |  |
| Anti-CD3-C1-UCP01-E6 IgG1LALA (antibody, V domains shown, IgG1 LALA) VH: QVQLVQSGAEVKKPGSSVKVSCKASGGKFSRYAISWVRQAPGQGLEWMGGITPPHVGIADYAQKFQGRVTITADESTSTAYMELSSLRSEDTAVYYCARYGYSLYMDIWGQGTLVTVSS VL: not shown | 231000 MFI |  |  |  |  |
| Anti-CD3-C1-UCP01-D1 IgG1LALA (antibody, V domains shown, IgG1 LALA) VH: QVQLVQSGAEVKKPGSSVKVSCKASGGKFSRYAISWVRQAPGQGLEWMGGINPLSDEAQYAQKFQGRVTITADESTSTAYMELSSLRSEDTAVYYCARYGYSLYMDIWGQGTLVTVSS VL: not shown | 52800 MFI |  |  |  |  |
| Anti-CD3-C1-UCP02-E1 IgG1LALA (antibody, V domains shown, IgG1 LALA) VH: QVQLVQSGAEVKKPGSSVKVSCKASGGKFSRYAISWVRQAPGQGLEWMGGISPFKGYAEYAQKFQGRVTITADESTSTAYMELSSLRSEDTAVYYCARYGYSLYMDIWGQGTLVTVSS VL: not shown | 151000 MFI |  |  |  |  |
| Anti-CD3-C1-UCP01-D6 IgG1LALA (antibody, V domains shown, IgG1 LALA; also called anti-CD3-C1-D6; C1-D6) VH: QVQLVQSGAEVKKPGSSVKVSCKASGGKFSRYAISWVRQAPGQGLEWMGGITALGGYPNYAQKFQGRVTITADESTSTAYMELSSLRSEDTAVYYCARYGYSLYMDIWGQGTLVTVSS VL: not shown | 178000 MFI |  |  |  |  |
| Anti-CD3-C1-UCP01-F10 IgG1LALA (antibody, V domains shown, IgG1 LALA; also called anti-CD3-C1-F10) VH: QVQLVQSGAEVKKPGSSVKVSCKASGGKFSRYAISWVRQAPGQGLEWMGGINPHIRFPEYAQKFQGRVTITADESTSTAYMELSSLRSEDTAVYYCARYGYSLYMDIWGQGTLVTVSS VL: not shown | 150000 MFI |  |  |  |  |
| Anti-CD3-C1-UCP01-G12 IgG1LALA (antibody, V domains shown, IgG1 LALA) VH: QVQLVQSGAKVKKPGSSVKVSCKASGGKFSRYAISWVRQAPGQGLEWMGGISPHIGHPEYAQKFQGRVTITADESTSTAYMELSSLRSEDTAVYYCARYGYSLYMDIWGQGTLVTVSS VL: not shown | 121000 MFI |  |  |  |  |
| Anti-CD3-C1-UCP01-H10 IgG1LALA (antibody, V domains shown, IgG1 LALA; also called anti-CD3-C1-H10) VH: QVQLVQSGAEVKKPGSSVKVSCKASGGKFSRYAISWVRQAPGQGLEWMGGISPLVGYPQYAQKFQGRVTITADESTSTAYMELSSLRSEDTAVYYCARYGYSLYMDIWGQGTLVTVSS VL: not shown | 151000 MFI |  |  |  |  |
| Anti-CD3-C1-UCP01-D4 IgG1LALA (antibody, V domains shown, IgG1 LALA) VH: QVQLVQSGAEVKKPGSSVKVSCKASGGKFSRYAISWVRQAPGQGLEWMGGINPIRGRPSYAQKFQGRVTITADESTSTAYMELSSLRSEDTAVYYCARYGYSLYMDIWGQGTLVTVSS VL: not shown | 126000 MFI |  |  |  |  |
| Anti-CD3-C1-UCP01-F12 IgG1LALA (antibody, V domains shown, IgG1 LALA) VH: QVQLVQSGAEVKKPGSSVKVSCKASGGKFSRYAISWVRQAPGQGLEWMGGISPFRGHAEYAQKFQGRVTITADESTSTAYMELSSLRSEDTAVYYCARYGYSLYMDIWGQGTLVTVSS VL: not shown | 108000 MFI |  |  |  |  |
| Anti-CD3-C1-UCP01-E10 IgG1LALA (antibody, V domains shown, IgG1 LALA; also called anti-CD3-C1-E10) VH: QVQLVQSGAEVKKPGSSVKVSCKASGGKFSRYAISWVRQAPGQGLEWMGGISPFEGTPAYAQKFQGRVTITADESTSTAYMELSSLRSEDTAVYYCARYGYSLYMDIWGQGTLVTVSS VL: not shown | 100000 MFI |  |  |  |  |
| Anti-CD3-C1-UCP01-E7 IgG1LALA (antibody, V domains shown, IgG1 LALA) VH: QVQLVQSGAEVKKPGSSVKVSCKASGGKFSRYAISWVRQAPGQGLEWMGGINPHLGEAEYAQKFQGRVTITADESTSTAYMELSSLRSEDTAVYYCARYGYSLYMDIWGQGTLVTVSS VL: not shown | 82800 MFI |  |  |  |  |
| Anti-CD3-C1-UCP01-F1 IgG1LALA (antibody, V domains shown, IgG1 LALA) VH: QVQLVQSGAEVKKPGSSVKVSCKASGGKFSRYAISWVRQAPGQGLEWMGGINPRLGQAEYAQKFQGRVTITADESTSTAYMELSSLRSEDTAVYYCARYGYSLYMDIWGQGTLVTVSS VL: not shown | 81300 MFI |  |  |  |  |
| Anti-CD3-C1-UCP01-E11 IgG1LALA (antibody, V domains shown, IgG1 LALA) VH: QVQLVQSGAEVKKPGSSVKVSCKASGGKFSRYAISWVRQAPGQGLEWMGGINPFKGDAEYAQKFQGRVTITADESTSTAYMELSSLRSEDTAVYYCARYGYSLYMDIWGQGTLVTVSS VL: not shown | 91800 MFI |  |  |  |  |
| Anti-CD3-C1-UCP01-E12 IgG1LALA (antibody, V domains shown, IgG1 LALA; also called anti-CD3-C1-E12) VH: QVQLVQSGAEVKKPGSSVKVSCKASGGKFSRYAISWVRQAPGQGLEWMGGINPLVGHAEYAQKFQGRVTITADESTSTAYMELSSLRSEDTAVYYCARYGYSLYMDIWGQGTLVTVSS VL: not shown | 149000 MFI |  |  |  |  |
| Anti-BCMA-D3-MP05-C1a FAB (Fab, V domains shown, Fab) VH: EVQLVESGGGLIQPGGSLRLSCAASGFIFSHYEMNWVRQAPGKGLEWVSAIGQGGNTVYADSVKGRFTISRDNSKNTLYLQMNSLRAEDTAVYYCARVPYSYMGYAGADIWGQGTLVTVSS VL: not shown |  | 1.03 nM | 1.03 nM |  |  |
| Anti-BCMA-D3-MP05-C1b FAB (Fab, V domains shown, Fab) VH: EVQLVESGGGLIQPGGSLRLSCAASGFIFSHYEMNWVRQAPGKGLEWVSAIGQGGNTVYADSVKGRFTISRDNSKNTLYLQMNSLRAEDTAVYYCARVPYSYIGYAGADIWGQGTLVTVSS VL: not shown |  | 5.86 nM | 2.22 nM |  |  |
| Anti-BCMA-D3-MP05-A9 FAB (Fab, V domains shown, Fab) VH: EVQLVESGGGLIQPGGSLRLSCAASGFIFSHYEMNWVRQAPGKGLEWVSAIGQGGNTVYADSVKGRFTISRDNSKNTLYLQMNSLRAEDTAVYYCARVPYSYAGYSGADIWGQGTLVTVSS VL: not shown |  | 6.54 nM | 2.3 nM |  |  |
| Anti-BCMA-D3-MP04-B11d FAB (Fab, V domains shown, Fab) VH: EVQLVESGGGLIQPGGSLRLSCAASGFIFSHYEMNWVRQAPGKGLEWVSAIGQVAAEVYADSVKGRFTISRDNSKNTLYLQMNSLRAEDTAVYYCARVPYSYSGYSGADIWGQGTLVTVSS VL: not shown |  | 4.85 nM | 5.43 nM |  |  |
| Anti-BCMA-D3-MP04-A2 FAB (Fab, V domains shown, Fab) VH: EVQLVESGGGLIQPGGSLRLSCAASGFIFSHYEMNWVRQAPGKGLEWVSAIGQQGGNTVYADSVKGRFTISRDNSKNTLYLQMNSLRAEDTAVYYCARVPYSYSGYSGADIWGQGTLVTVSS VL: not shown |  | 0.01 nM | 0.03 nM | 7.68 nM | 21500 RFI |
| Anti-BCMA-D3-MP04-D4 FAB (Fab, V domains shown, Fab) VH: EVQLVESGGGLIQPGGSLRLSCAASGFIFSHYEMNWVRQAPGKGLEWVSAIGQVGGNTVYADSVKGRFTISRDNSKNTLYLQMNSLRAEDTAVYYCARVPYSYSGYSGADIWGQGTLVTVSS VL: not shown |  | 0.01 nM | 0.02 nM | 8.84 nM | 25300 RFI |
| Anti-BCMA-D3-MP04-C8b FAB (Fab, V domains shown, Fab) VH: EVQLVESGGGLIQPGGSLRLSCAASGFIFSHYEMNWVRQAPGKGLEWVSAIGQIGFGTLYADNVKGRFTISRDNSKNTLYLQMNSLRAEDTAVYYCARVPYSYSGYSGADIWGQGTLVTVSS VL: not shown |  | 0.11 nM | 0.03 nM | 7.39 nM | 28300 RFI |
| Anti-BCMA-D3-MP03-G7 FAB (Fab, V domains shown, Fab) VH: EVQLVESGGGLIQPGGSLRLSCAASGFIFSHYEMNWVRQAPGKGLEWVSIIGQRGHTTEYADSVKGRFTISRDNSKNTLYLQMNSLRAEDTAVYYCARVPYSYSGYSGADIWGQGTLVTVSS VL: not shown |  | 0.31 nM | 0.41 nM | 29.5 nM | 21500 RFI |
| Anti-BCMA-D3-MP04-C2 FAB (Fab, V domains shown, Fab) VH: EVQLVESGGGLIQPGGSLRLSCAASGFIFSHYEMNWVRQAPGKGLEWVSAIGQFGGNTVYADSVKGRFTISRDNSKNTLYLQMNSLRAEDTAVYYCARVPYSYSGYSGADIWGQGTLVTVSS VL: not shown |  | 0.02 nM | 0.03 nM | 6.49 nM | 24600 RFI |
| Anti-BCMA-D3-MP04-C8a FAB (Fab, V domains shown, Fab) VH: EVQLVESGGGLIQPGGSLRLSCAASGFIFSHYEMNWVRQAPGKGLEWVSAIGQMGFGTLYADNVKGRFTISRDNSKNTLYLQMNSLRAEDTAVYYCARVPYSYSGYSGADIWGQGTLVTVSS VL: not shown |  | 0.17 nM | 0.09 nM | 3.65 nM | 26500 RFI |
| Anti-BCMA-D3-MP04-E11 FAB (Fab, V domains shown, Fab; also called anti-BCMA-D3-E11; D3-E11) VH: EVQLVESGGGLIQPGGSLRLSCAASGFIFSHYEMNWVRQAPGKGLEWVSAIGQLGGNTVYADSVKGRFTISRDNSKNTLYLQMNSLRAEDTAVYYCARVPYSYSGYSGADIWGQGTLVTVSS VL: not shown |  | 0.01 nM | 0.01 nM | 13.4 nM | 31800 RFI |
